T1: GLP-1 receptor present in the plasma membranes isolated from RINm5F cells (UniProt P32301 22-463, limits assumed)
T1 sequence (looked up): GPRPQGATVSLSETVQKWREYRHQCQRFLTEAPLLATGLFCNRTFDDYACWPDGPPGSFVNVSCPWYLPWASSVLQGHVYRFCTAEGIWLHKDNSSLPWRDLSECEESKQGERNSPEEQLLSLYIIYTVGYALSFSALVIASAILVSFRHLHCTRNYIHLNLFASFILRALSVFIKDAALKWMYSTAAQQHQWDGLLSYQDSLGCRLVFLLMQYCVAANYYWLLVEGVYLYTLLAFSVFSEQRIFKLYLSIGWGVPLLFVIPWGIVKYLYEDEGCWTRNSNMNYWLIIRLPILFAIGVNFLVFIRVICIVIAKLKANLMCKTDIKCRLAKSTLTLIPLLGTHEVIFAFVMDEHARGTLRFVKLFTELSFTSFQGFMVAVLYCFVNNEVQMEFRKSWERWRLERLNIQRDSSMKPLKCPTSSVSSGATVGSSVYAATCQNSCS

The source of these data is patent publication US20040002442A1 (Bayer, published 2004).

Ends that are not written are not given here. * marks the point of attachment. Palmitoyl = CCCCCCCCCCCCCCCC(=O)*

Broadly, the IC50 is the concentration needed to halve the response being measured. A higher IC50 goes with lower potency.

T2 sequence (P30082 27-485): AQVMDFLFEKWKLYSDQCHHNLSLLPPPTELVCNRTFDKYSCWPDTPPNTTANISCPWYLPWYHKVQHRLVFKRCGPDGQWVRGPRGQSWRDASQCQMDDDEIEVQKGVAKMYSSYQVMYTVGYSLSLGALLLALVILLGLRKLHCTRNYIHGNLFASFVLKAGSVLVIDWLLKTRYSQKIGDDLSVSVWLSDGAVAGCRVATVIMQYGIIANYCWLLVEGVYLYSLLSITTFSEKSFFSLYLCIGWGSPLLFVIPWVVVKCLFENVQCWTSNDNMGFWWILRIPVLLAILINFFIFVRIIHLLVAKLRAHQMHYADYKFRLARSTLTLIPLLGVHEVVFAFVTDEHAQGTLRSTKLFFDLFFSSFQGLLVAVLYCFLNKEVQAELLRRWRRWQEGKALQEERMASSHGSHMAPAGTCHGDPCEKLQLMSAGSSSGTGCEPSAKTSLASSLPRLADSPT

One experiment addresses T1, GLP-1 receptor present in the plasma …. In words: cell-based or functional assay.
Regarding HSQGTFTSDYAKYLDARRAKEFIAWLVKGRG [G51], the “% GLP1 max, cAMP SPA in RINm5F cells” value is 91.2% and the “Relative Potency (%), cAMP SPA in RINm5F cells” value (shortened to “Relative Potency (%), cAMP SPA”) amounted to 58.1%.
As to HSQGTFTSDYARYLDARRAREFIK(Palmitoyl)WLVRGRG [G90], the “% GLP1 max, cAMP SPA in RINm5F cells” value amounted to 83.5% and the “Relative Potency (%), cAMP SPA” value came to 0.8%.
For HSQGTFTSDYARYLDARRAREFIKWLVRGRC(PEG43kD) [G4185], in that order: 98.3% and 0.7%.
For HSQGTFTSDYAKYLDARRAKEFIAWLVKGRK(Palmitoyl) [G88], in that order: 118% and 2.3%.
Turning to HSQGTFTSDYAKYLDARRAKEFIAWLVKGRC(PEG22kD) [G277], the “% GLP1 max, cAMP SPA in RINm5F cells” value is 93.7% and the “Relative Potency (%), cAMP SPA” value is 1.8%.
The matching figures for HSQGTFTSDYARYLDARRAK(Palmitoyl)EFIKWLVRGRG (not fully specified; printed as HSQGTFTSDYARYLDARRAK(FA)EFIKWLVRGRG) [G183]: 90.5% and 0.6%.
The matching figures for HSQGTFTSDYARYLDARRAREFIKWLVRGRC(PEG22kD) [G2185]: 113% and 6.2%.
The matching figures for HSQGTFTSDYAKYLDAKKAKEFIAWLVKGRG [G58]: 99% and 76.1%.
For HSQGTFTSDYSKYLEGQAAKEFIAWLVKGR-NH2 [G5], the “% GLP1 max, cAMP SPA in RINm5F cells” value came out at 109% and the “Relative Potency (%), cAMP SPA” value came to 69.9%.
The matching figures for HSQGTFTSDYARYLDARRAREFIKWLVRGRGK(Palmitoyl) [G182]: 104% and 1.4%.
For HSQGTFTSDYSKYLDSRRAQDFVQWLVKGR-NH2 [G1], in that order: 112% and 6.9%.

The next experiment concerns the target T2, glucagon receptor present in the plasma membranes isolated from rat liver (rat, UniProt P30082 27-485). Description: cell-based or functional assay.
Consider HSQGTFTSDYAKYLDARRAKEFIAWLVKGRG [G51], for which the “% Inhib glucagon stimulated cAMP increase (10 uM peptide, rat hepatocytes)” value was 35.2%.
Still for that read-out and setting: to HSQGTFTSDYAKYLDAKKAKEFIAWLVKGRG [G58] belongs 32.6%.

Another experiment deals with T1, GLP-1 receptor present in the plasma …. Description: 125I-GLP-1 displacement, RINm5F plasma membranes. The procedure: Competitive binding of some polypeptides of the invention to RINm5F cell plasma membranes was measured as follows. Ninety-six-well GF/C filtration plates (Millipore, Bedford, Ma.) were blocked with 0.3% PEI for at least one hour and washed twice with binding buffer consisting of 20 mM Tris, 2 mM EDTA, pH 7.5, 1 mg/ml BSA, and 1 mg/ml bacitracin. […] The plates were dried, scintillant was added to each well, and cpm per well determined using a Wallac Microbeta counter.
Regarding HSQGTFTSDYAKYLDARRAKEFIAWLVKGRG [G51], the IC50 stood at 8.2 nM.
The same measure, in the same setting: for HSQGTFTSDYARYLDARRAREFIK(Palmitoyl)WLVRGRG [G90] the value was 25.4 nM; for HSQGTFTSDYARYLDARRAREFIKWLVRGRC(PEG43kD) [G4185], 248 nM; for HSQGTFTSDYAKYLDARRAKEFIAWLVKGRK(Palmitoyl) [G88], 109 nM.
The same measure, in the same setting: for HSQGTFTSDYARYLDARRAK(Palmitoyl)EFIKWLVRGRG (not fully specified; printed as HSQGTFTSDYARYLDARRAK(FA)EFIKWLVRGRG) [G183] the value was 159 nM; for HSQGTFTSDYARYLDARRAREFIKWLVRGRC(PEG22kD) [G2185], 56.1 nM.
On the same count and under the same terms, to HSQGTFTSDYAKYLDAKKAKEFIAWLVKGRG [G58] belongs 6.9 nM.
HSQGTFTSDYSKYLEGQAAKEFIAWLVKGR-NH2 [G5]: the IC50 worked out at 0.5 nM.
Same read-out and setting: for HSQGTFTSDYARYLDARRAREFIKWLVRGRGK(Palmitoyl) [G182] the value was 12.6 nM; for HSQGTFTSDYSKYLDSRRAQDFVQWLVKGR-NH2 [G1], 6 nM.

The target in the next experiment is T2, glucagon receptor present in the plasma …. In words: 125I-glucagon displacement, rat liver plasma membranes. The procedure: Competitive binding of some polypeptides of the invention to rat liver plasma membranes was measured as follows. Ninety-six-well GF/C filtration plates (Millipore, Bedford, Ma.) were blocked with 0.1% PEI for at least one hour and washed twice with binding buffer consisting of 20 mM Tris, 2 mM EDTA, pH 7.5, 1 mg/ml BSA, and 1 mg/ml bacitracin. […] The plates were dried, scintillant was added to each well, and cpm per well determined using a Wallac Microbeta counter.
The molecule HSQGTFTSDYAKYLDARRAKEFIAWLVKGRG [G51] registered a half-maximal inhibitory concentration (IC50) of 154 nM.
Still for that read-out and setting: to HSQGTFTSDYARYLDARRAREFIK(Palmitoyl)WLVRGRG [G90] belongs 726 nM.
On the same count and under the same terms, to HSQGTFTSDYARYLDARRAREFIKWLVRGRC(PEG43kD) [G4185] belongs 547 nM; to HSQGTFTSDYAKYLDARRAKEFIAWLVKGRK(Palmitoyl) [G88], 350 nM; to HSQGTFTSDYAKYLDARRAKEFIAWLVKGRC(PEG22kD) [G277], 65.5 nM.
Still for that read-out and setting: for HSQGTFTSDYARYLDARRAK(Palmitoyl)EFIKWLVRGRG (not fully specified; printed as HSQGTFTSDYARYLDARRAK(FA)EFIKWLVRGRG) [G183] the value was 663 nM; for HSQGTFTSDYARYLDARRAREFIKWLVRGRC(PEG22kD) [G2185], 347 nM; for HSQGTFTSDYAKYLDAKKAKEFIAWLVKGRG [G58], 164 nM.
In the case of HSQGTFTSDYSKYLEGQAAKEFIAWLVKGR-NH2 [G5], the IC50 was determined as 243 nM.
Same read-out and setting: for HSQGTFTSDYARYLDARRAREFIKWLVRGRGK(Palmitoyl) [G182] the value was 220 nM; for HSQGTFTSDYSKYLDSRRAQDFVQWLVKGR-NH2 [G1], 6.6 nM.
